Test results published in publication PMC6987120, “Structural insights into ATP hydrolysis by the MoxR ATPase RavA and the LdcI-RavA cage-like complex” (Communications Biology, 2020).
“And” between values parts separate entries of the source, which are not always exact repeats. Equal values may be shown once. Blank lines part the entries; values can stand above or below the binder they belong to.

B1: acid stress-inducible lysine decarboxylase LdcI (enzyme, E. coli)
chain: MNVIAILNHMGVYFKEEPIRELHRALERLNFQIVYPNDRDDLLKLIENNARLCGVIFDWDKYNLELCEEISKMNENLPLYAFANTYSTLDVSLNDLRLQISFFEYALGAAEDIANKIKQTTDEYINTILPPLTKALFKYVREGKYTFCTPGHMGGTAFQKSPVGSLFYDFFGPNTMKSDISISVSELGSLLDHSGPHKEAEQYIARVFNADRSYMVTNGTSTANKIVGMYSAPAGSTILIDRNCHKSLTHLMMMSDVTPIYFRPTRNAYGILGGIPQSEFQHATIAKRVKETPNATWPVHAVITNSTYDGLLYNTDFIKKTLDVKSIHFDSAWVPYTNFSPIYEGKCGMSGGRVEGKVIYETQSTHKLLAAFSQASMIHVKGDVNEETFNEAYMMHTTTSPHYGIVASTETAAAMMKGNAGKRLINGSIERAIKFRKEIKRLRTESDGWFFDVWQPDHIDTTECWPLRSDSTWHGFKNIDNEHMYLDPIKVTLLTPGMEKDGTMSDFGIPASIVAKYLDEHGIVVEKTGPYNLLFLFSIGIDKTKALSLLRALTDFKRAFDLNLRVKNMLPSLYREDPEFYENMRIQELAQNIHKLIVHHNLPDLMYRAFEVLPTMVMTPYAAFQKELHGMTEEVYLDEMVGRINANMILPYPPGVPLVMPGEMITEESRPVLEFLQMLCEIGAHYPGFETDIHGAYRQADGRYTVKVLKEESKK
notes: LdcI, inducible lysine decarboxylase of E. coli; Decamer in the cryo-EM maps of the cage; Buffers held 0.1 mM PLP; source: ppGpp-/- E. coli strain (MG1655 ΔrelA ΔspoT), purified as previously described; copies: 10

Legend:
[1] = target: the molecule itself; assay: cryo-EM structure; purified LdcI and RavA mixed at about 4.5:2 RavA:LdcI monomers; 20 mM Tris pH 7.9, 300 mM NaCl, 2 mM ADP, 10 mM MgCl2, 0.1 mM PLP, 1 mM DTT; room temperature; maps of Class 1 and Class 2 without symmetry imposed
[2] = target: B1; assay: as above; conditions: both partners purified
[3] = target: B1; assay: BLI; biotinylated RavA-AviTag (pre-incubated with 1 mM ADP) immobilised on streptavidin biosensors; LdcI 500-31.25 nM in solution; Octet RED96, 293 K; pH 8 (Tris), 7 (HEPES), 6.5 and 5 (MES), 300 mM NaCl, 10 mM MgCl2, 10% glycerol, 0.1% BSA, 0.02% Tween-20, 1 mM ADP, 1 mM DTT, 0.1 mM PLP; 1:1 interaction model; averages over the four pH values; conditions: both partners purified
[4] = target: T1, LdcI (acid stress-inducible lysine decarboxylase) (E. coli, UniProt P0A9H3 1-715); assay: BLI; biotinylated RavA-AviTag incubated with 1 mM ADP for 10 min, on streptavidin biosensors, quenched with biocytin; LdcI 500-31.25 nM in solution; pH 7.0 (1x HBS: 25 mM HEPES, 300 mM NaCl, 10 mM MgCl2, 10% glycerol, with 1x kinetics buffer, 1 mM ADP, 1 mM DTT, 0.1 mM PLP); 293 K, Octet RED96; 1:1 interaction model; conditions: both partners purified
T1 construct: Inducible lysine decarboxylase LdcI of E. coli; 0.1 mM PLP in the BLI buffer; also called lysine decarboxylase LdcI; source: E. coli ppGpp-/- strain MG1655 ΔrelA ΔspoT, purified as previously described
T1 sequence: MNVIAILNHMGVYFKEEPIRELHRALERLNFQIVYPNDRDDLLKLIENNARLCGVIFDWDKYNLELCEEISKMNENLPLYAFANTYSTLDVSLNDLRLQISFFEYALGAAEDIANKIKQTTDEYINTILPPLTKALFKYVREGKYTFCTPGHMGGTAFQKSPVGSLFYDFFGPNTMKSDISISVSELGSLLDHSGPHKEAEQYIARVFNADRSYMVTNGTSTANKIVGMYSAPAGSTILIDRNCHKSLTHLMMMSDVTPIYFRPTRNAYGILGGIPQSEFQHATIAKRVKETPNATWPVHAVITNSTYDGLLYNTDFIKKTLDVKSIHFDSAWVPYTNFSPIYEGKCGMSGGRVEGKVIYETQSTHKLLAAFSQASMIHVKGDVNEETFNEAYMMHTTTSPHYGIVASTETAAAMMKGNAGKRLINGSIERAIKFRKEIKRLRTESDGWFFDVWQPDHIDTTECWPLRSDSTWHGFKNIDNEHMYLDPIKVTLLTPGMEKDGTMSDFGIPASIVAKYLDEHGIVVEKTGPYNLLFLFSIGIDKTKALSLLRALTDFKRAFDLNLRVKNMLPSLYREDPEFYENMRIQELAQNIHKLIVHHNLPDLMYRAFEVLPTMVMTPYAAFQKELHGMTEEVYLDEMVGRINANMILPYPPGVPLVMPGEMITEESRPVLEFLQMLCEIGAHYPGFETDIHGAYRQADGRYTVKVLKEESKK

[5] = target: T1, LdcI (acid stress-inducible lysine …); assay: BLI; biotinylated RavA-AviTag incubated with 1 mM ADP for 10 min, on streptavidin biosensors, quenched with biocytin; LdcI 500-31.25 nM in solution; pH 6.5 (1x MES: 25 mM MES, 300 mM NaCl, 10 mM MgCl2, 10% glycerol, with 1x kinetics buffer, 1 mM ADP, 1 mM DTT, 0.1 mM PLP); 293 K, Octet RED96; 1:1 interaction model; conditions: both partners purified
[6] = target: T1, LdcI (acid stress-inducible lysine …); assay: BLI; biotinylated RavA-AviTag incubated with 1 mM ADP for 10 min, on streptavidin biosensors, quenched with biocytin; LdcI 500-31.25 nM in solution; pH 8.0 (1x TBS: 25 mM Tris, 300 mM NaCl, 10 mM MgCl2, 10% glycerol, with 1x kinetics buffer, 1 mM ADP, 1 mM DTT, 0.1 mM PLP); 293 K, Octet RED96; 1:1 interaction model; conditions: both partners purified
[7] = target: T1, LdcI (acid stress-inducible lysine …); assay: BLI; biotinylated RavA-AviTag on streptavidin biosensors WITHOUT prior incubation with ADP, quenched with biocytin; LdcI 500-31.25 nM in solution; pH 7.0 (1x HBS: 25 mM HEPES, 300 mM NaCl, 10 mM MgCl2, 10% glycerol, with 1x kinetics buffer, 1 mM DTT, 0.1 mM PLP); 293 K, Octet RED96; 1:1 interaction model; conditions: both partners purified
[8] = target: T1, LdcI (acid stress-inducible lysine …); assay: BLI; biotinylated RavA-AviTag incubated with 1 mM ADP for 10 min, on streptavidin biosensors, quenched with biocytin; LdcI 500-31.25 nM in solution; pH 5.0 (1x MES pH 5, with 1x kinetics buffer, 1 mM ADP, 1 mM DTT, 0.1 mM PLP); 293 K, Octet RED96; 1:1 interaction model; conditions: both partners purified

Binder: B1
- stoichiometry N [1]: 10

- binding result [2]: binds
B2: MoxR AAA+ ATPase RavA (enzyme)
chain: not shown
notes: RavA, MoxR family AAA+ ATPase of E. coli, encoded by the ravAviaA operon; cloned in the p11 vector (N-terminal cleavable HIS-tag); Hexamer (spiral or C2-symmetric closed ring) by cryo-EM with ADP; also called free RavA; RavA-ADP
- stoichiometry N [1]: 6

- Kd [3]: 20 nM to 40 nM (2×) and 29.7 nM
- koff [3]: 0.000811 s⁻¹
- kon [3]: 26800 M⁻¹ s⁻¹
B3: biotinylated RavA-AviTag (enzyme)
chain: not shown
modifications: biotin (biotinylated AviTag)
notes: RavA of E. coli cloned in the p11 vector (N-terminal cleavable HIS-tag) with a C-terminal AviTag added; Incubated with 1 mM ADP for 10 min before BLI; also called AviTag-containing RavA; source: E. coli BL-21 DE3 (100 μM D-biotin in the LB medium, overnight, 20 °C), purified to homogeneity; not shown: AviTag, C-terminal, kept

- Kd [4]: 26.7 nM
- koff [4]: 0.000659 s⁻¹
- kon [4]: 24700 M⁻¹ s⁻¹
- Kd [5]: 20.9 nM
- koff [5]: 0.000538 s⁻¹
- kon [5]: 25700 M⁻¹ s⁻¹
- Kd [6]: 44.2 nM
- koff [6]: 0.00131 s⁻¹
- kon [6]: 29600 M⁻¹ s⁻¹
- Kd [7]: 46.3 nM
- koff [7]: 0.000987 s⁻¹
- kon [7]: 21300 M⁻¹ s⁻¹
- Kd [8]: 27.1 nM
- koff [8]: 0.00074 s⁻¹
- kon [8]: 27300 M⁻¹ s⁻¹
B4: biotinylated RavA-AviTag (enzyme)
chain: not shown
modifications: biotin (biotinylated AviTag)
notes: MoxR AAA+ ATPase RavA of E. coli, cloned in the p11 vector (N-terminal cleavable HIS-tag) with a C-terminal AviTag added; The methods describe biotinylation during expression (D-biotin in the medium), the results say 'in vitro biotinylated'; source: E. coli BL-21 DE3 (100 μM D-biotin in the LB medium, overnight, 20 °C), purified to homogeneity; not shown: AviTag, C-terminal, kept
